Laboratory results reported in doi:10.1101/2020.08.17.254268.

Molecular target: CeOSM-3 kinesin-2 motor, SNAP-tagged and labelled (CeOSM-3^SNAP647) (C. elegans) (UniProt P46873)
Sequence of UniProt P46873 (P46873 whole entry): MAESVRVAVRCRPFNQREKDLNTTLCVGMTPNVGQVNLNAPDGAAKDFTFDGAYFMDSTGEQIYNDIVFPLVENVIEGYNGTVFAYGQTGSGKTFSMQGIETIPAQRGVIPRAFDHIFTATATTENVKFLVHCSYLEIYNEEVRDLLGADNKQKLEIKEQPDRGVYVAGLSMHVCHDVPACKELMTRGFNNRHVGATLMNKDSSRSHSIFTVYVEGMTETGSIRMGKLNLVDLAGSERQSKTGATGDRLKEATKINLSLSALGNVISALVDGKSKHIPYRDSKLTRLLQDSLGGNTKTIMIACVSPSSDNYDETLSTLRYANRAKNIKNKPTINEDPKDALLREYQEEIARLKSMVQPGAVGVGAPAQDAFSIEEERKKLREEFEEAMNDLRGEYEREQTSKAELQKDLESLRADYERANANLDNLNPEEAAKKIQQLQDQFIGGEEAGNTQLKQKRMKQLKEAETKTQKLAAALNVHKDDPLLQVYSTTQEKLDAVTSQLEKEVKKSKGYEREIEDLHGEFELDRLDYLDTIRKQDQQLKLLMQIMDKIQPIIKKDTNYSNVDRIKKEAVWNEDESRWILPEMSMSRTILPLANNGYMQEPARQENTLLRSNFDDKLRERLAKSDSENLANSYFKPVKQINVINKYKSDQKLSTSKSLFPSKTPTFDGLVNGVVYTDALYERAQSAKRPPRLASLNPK

MmIFT-52^GFP/IFT-70^SNAP647 adaptor (from UniProt Q62559 1-426; Q99J38 1-664) (complex)
runlength of CeOSM-3 with MmIFT-52/IFT-70 in the single-molecule transport assay: 3 μm | velocity of CeOSM-3 with MmIFT-52/IFT-70 in the single-molecule transport assay: 1.72 μm/s
